{"source": "paper PMC6803667", "about": "“Binding site plasticity in viral PPxY Late domain recognition by the third WW domain of human NEDD4” (Scientific Reports, 2019)", "origin": "cited, not measured here", "target": "ARRDC3 peptide (Homo sapiens)", "data": [{"substance": "NEDD4 WW3 (from UniProt P46934)", "values": [{"measurement": "Kd", "value": 3000, "unit": "nM"}]}]}
